{"source": "the nanobody polyreactivity screen of Harvey et al. (2022)", "data": [{"assay": "yeast display, Sf9 membrane polyspecificity reagent, FACS + sequencing; frameworks hold sequencing errors", "in_short": "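After 36–48 hours of galactose induction, yeast (Saccharomyces cerevisiae BJ5465) displaying a synthetic nanobody library were stained at 4 °C for 1 hour with 10% biotinylated, detergent-solubilized Sf9 membrane reagent. Streptavidin microbeads enriched the stained cells before FACS sorting into low and high (top ~1%) gates on anti-HA and streptavidin fluorescence. Each clone's polyreactivity label reflects its gate of origin.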", "values": [{"sequence": "QVQLVESGGGLVQAGGSLRLSCAASGLTFTKYAMGWYRQAPGKERELVAAINRRGGSTYYADSVKGRFTISRDNAKNTVYLQMNSLKPEDTAVYYCAKRKSVRSTPSYEYWGQGTQVTVSS", "polyreactivity (PSR sort gate)": "high polyreactivity"}, {"sequence": "QVQLVESGGGLVQAGGSLRLSCAASGLTFTRYDMGWYRQAPGKERELVASISQSGTSTHYADSVKGRFTISRDNAKNTVYLQMNSLKPEDTAVYYCAADYVSRYYVKWYRGFDYWGQGTQVTVSS", "polyreactivity (PSR sort gate)": "low polyreactivity"}, {"sequence": "QVQLVESGGGLVQAGGSLRLSCAASGLTFTTYAMGWSRQAPGKERELVAAISRRGSRTYYADSVKGRFTISRDNAKNTVYLQMNSLKPEDTAVYYCNALTGSFKTYSFDYWGQGTQVTVSS", "polyreactivity (PSR sort gate)": "high polyreactivity"}, {"sequence": "QVQLVESGGGLVQAGGSLRLSCAASGLTFTYYALGWYRQAPGKERELVAAISSSGSDTYYADSVKGRFTISRDNAKNTVYLQMNSLKPEDTAVYYCAAVLTGLSPDFEYEYWGQGTQVTVSS", "polyreactivity (PSR sort gate)": "low polyreactivity"}, {"sequence": "QVQLVESGGGLVQAGGSLRLSCAASGLTFTYYAMGWYRQAPGKERELVAAISWSGGSTYYADSVKGRFTISRDKAKNTVYLQMNSLKPEDTAVYYCAAVDPFTPYDRTYTTDGRESDYWGQGTQVTVSS", "polyreactivity (PSR sort gate)": "low polyreactivity"}, {"sequence": "QVQLVESGGGLVQAGGSLRLSCAASGLTFTYYAMGWYRQAPGKERELVAAITGGARTYYADSVKGRFTISRDNAKNTVYLQMNSLKPEDTAVYYCATQGAQKRYKYNYWGQGTQVTVSS", "polyreactivity (PSR sort gate)": "high polyreactivity"}, {"sequence": "QVQLVESGGGLVQAGGSLRLSCAASGLTFVDNAMGWYRQAPGQERELVAAITKRGGRTYYADSVKGRFTISRDNAKNTVYLQMNSLKPEDTAVNYCARESGNDSSRRLDYWGQGSQVTVSS", "polyreactivity (PSR sort gate)": "low polyreactivity"}, {"sequence": "QVQLVESGGGLVQAGGSLRLSCAASGLTFVDNAMGWYRQAPRKERELVAGITQSGGSTNYADSVKGRFTISRDNAKNTVYLQMNSLKPEDTAVYYCAKDTYRAYFRWEYGYWGQGTQVTVSS", "polyreactivity (PSR sort gate)": "low polyreactivity"}, {"sequence": "QVQLVESGGGLVQAGGSLRLSCAASGLTFVEYAMAWYRQAPGKERELVAAITSTDGTNYADSVKGRFTISRDNAKNTVYIQMNSLKPADTAVYYCFTLAQDFYFWYYYWGQGTQVTVSS", "polyreactivity (PSR sort gate)": "high polyreactivity"}, {"sequence": "QVQLVESGGGLVQAGGSLRLSCAASGLTFVKNVMGWYRQAPGKERELVAAISRRGGSTYYADSVKGRFTISRDNAKNTVYLQMNSLKPEDTAVYYCNAVLNQLSYIYPAVGYWGQGTQVTVSS", "polyreactivity (PSR sort gate)": "high polyreactivity"}, {"sequence": "QVQLVESGGGLVQAGGSLRLSCAASGLTFVNYAMGWYRQAPGKERELVATISKTGGSTYYADSVKGRFTISRDNAKNTVYLQMNSLKPEDTAVYYCAARRARRSGYYYWGQGTQVTVSS", "polyreactivity (PSR sort gate)": "high polyreactivity"}, {"sequence": "QVQLVESGGGLVQAGGSLRLSCAASGLTFVSYVMGWYRQAPGKERELVAAISSSGGRTYYADSVKGRFTISRDNAKNTVYLQMNSLKPEDTAVYYCAVYGYHEGGYWGQGTQVTVSS", "polyreactivity (PSR sort gate)": "high polyreactivity"}, {"sequence": "QVQLVESGGGLVQAGGSLRLSCAASGLTFVTYVMGWYRLAPGKERELVAAISYSGGSTYYADSVKARFTISRDNAKNTVYLLMNSLKPEDTAVYYCAAEWYGYEEDDYWGQGTQVTVSS", "polyreactivity (PSR sort gate)": "low polyreactivity"}, {"sequence": "QVQLVESGGGLVQAGGSLRLSCAASGLTFVTYVMGWYRPAPGKERELVAAISYSGGSTYYADSVKGRFTISRDNAKNTVYLQMNSLKPEDTAVYYCAAEWYGYQEDDYWGQGTQVTVSS", "polyreactivity (PSR sort gate)": "low polyreactivity"}, {"sequence": "QVQLVESGGGLVQAGGSLRLSCAASGLTFVWYVMGWYRQAPGKERELVAAITSGGTTYYADSVKGRFTISRDNAKNTVYLQMNSLKPEDTAVYYCAAQWAGYGDLPWPYSVIVEFYYWGQGTQVTVSS", "polyreactivity (PSR sort gate)": "low polyreactivity"}, {"sequence": "QVQLVESGGGLVQAGGSLRLSCAASGLTFVYNAMGWYRQAPGKERELVADISYDGGGTYYADSVKGRFTISRDNAMNTVYLQMNSLKPEDTAVYYCAKRAFGSQGEISYTPPGYDSWGQGTQVTVSS", "polyreactivity (PSR sort gate)": "low polyreactivity"}, {"sequence": "QVQLVESGGGLVQAGGSLRLSCAASGLTFVYYAMGWYRQAPGKERELVAAISGVGSTHYADSVKGRFTISRDNANNTVYLQMNSLKPEDTAVYYCNADYAYFWGWYGDWGQGTQVTVSS", "polyreactivity (PSR sort gate)": "low polyreactivity"}]}]}
